Measurements from patent US20110015136A1.

Biological target: human membrane attack complex (MAC), C5b-9 complex (human) (UniProt P01031)
Test: cell-based or functional assay

B1: human CD59, glycosylphosphatidylinositol (GPI)-anchored membrane protein (protein, UniProt P13987 26-102, looked up)
chain: LQCYNCPNPTADCKTAVNCSSDFDACLITKAGLQVYNKCWKFEHCNFNDVTTRLRENELTYYCCKKDLCNFNEQLEN
modifications: GPI anchor at Asparagine 77 (mature numbering)
complement mediated cell lysis (PI uptake, FACS; hepa-1c1c7 cells, 1000 vp/cell AdCAGCD59, 1% NHS): 12.3%
fold reduction of complement mediated cell lysis: 8 fold
inhibition of cell lysis at 250 vp/cell of AdCAGCD59: > 50%
inhibition of cell lysis at 500 vp/cell of AdCAGCD59: > 70%
reduction in MAC immunofluorescence intensity on corneal endothelium: 86%
reduction in MAC immunofluorescence on eyecups at 7.5 min NHS treatment: 68%
reduction in MAC immunofluorescence on eyecups at 15 min NHS treatment: 56%
reduction in mean MAC immunofluorescence intensity on RPE of eyecup tissues: 55%
